# Measured values: publication PMC11213948 (2024)
# B1: Xpress-His G5_(1–1287) [not stated] / G5_(1–1508)-FLAG [not stated] (parent complex)
# chain 1: MGQEPRTLPPSPNWYCARCSDAVPGGLFGFAARTSVFLVRVGPGAGESPGTPPFRVIGELVGHTERVSGFTFSHHPGQYNLCATSSDDGTVKIWDVETKTVVTEHALHQHTISTLHWSPRVKDLIVSGDEKGVVFCYWFNRNDSQHLFIEPRTIFCLTCSPHHEDLVAIGYKDGIVVIIDISKKGEVIHRLRGHDDEIHSIAWCPLPGEDCLSINQEETSEEAEITNGNAVAQAPVTKGCYLATGSKDQTIRIWSCSRGRGVMILKLPFLKRRGGGIDPTVKERLWLTLHWPSNQPTQLVSSCFGGELLQWDLTQSWRRKYTLFSASSEGQNHSRIVFNLCPLQTEDDKQLLLSTSMDRDVKCWDIATLECSWTLPSLGGFAYSLAFSSVDIGSLAIGVGDGMIRVWNTLSIKNNYDVKNFWQGVKSKVTALCWHPTKEGCLAFGTDDGKVGLYDTYSNKPPQISSTYHKKTVYTLAWGPPVPPMSLGGEGDRPSLALYSCGGEGIVLQHNPWKLSGEAFDINKLIRDTNSIKYKLPVHTEISWKADGKIMALGNEDGSIEIFQIPNLKLICTIQQHHKLVNTISWHHEHGSQPELSYLMASGSNNAVIYVHNLKTVIESSPESPVTITEPYRTLSGHTAKITSVAWSPHHDGRLVSASYDGTAQVWDALREEPLCNFRGHRGRLLCVAWSPLDPDCIYSGADDFCVHKWLTSMQDHSRPPQGKKSIELEKKRLSQPKAKPKKKKKPTLRTPVKLESIDGNEEESMKENSGPVENGVSDQEGEEQAREPELPCGLAPAVSREPVICTPVSSGFEKSKVTINNKVILLKKEPPKEKPETLIKKRKARSLLPLSTSLDHRSKEELHQDCLVLATAKHSRELNEDVSADVEERFHLGLFTDRATLYRMIDIEGKGHLENGHPELFHQLMLWKGDLKGVLQTAAERGELTDNLVAMAPAAGYHVWLWAVEAFAKQLCFQDQYVKAASHLLSIHKVYEAVELLKSNHFYREAIAIAKARLRPEDPVLKDLYLSWGTVLERDGHYAVAAKCYLGATCAYDAAKVLAKKGDAASLRTAAELAAIVGEDELSASLALRCAQELLLANNWVGAQEALQLHESLQGQRLVFCLLELLSRHLEEKQLSEGKSSSSYHTWNTGTEGPFVERVTAVWKSIFSLDTPEQYQEAFQKLQNIKYPSATNNTPAKQLLLHICHDLTLAVLSQQMASWDEAVQALLRAVVRSYDSGSFTIMQEVYSAFLPDGCDHLRDKLGDHQSPATPAFKSLEAFFLYGRLYE
# chain 2: MGQEPRTLPPSPNWYCARCSDAVPGGLFGFAARTSVFLVRVGPGAGESPGTPPFRVIGELVGHTERVSGFTFSHHPGQYNLCATSSDDGTVKIWDVETKTVVTEHALHQHTISTLHWSPRVKDLIVSGDEKGVVFCYWFNRNDSQHLFIEPRTIFCLTCSPHHEDLVAIGYKDGIVVIIDISKKGEVIHRLRGHDDEIHSIAWCPLPGEDCLSINQEETSEEAEITNGNAVAQAPVTKGCYLATGSKDQTIRIWSCSRGRGVMILKLPFLKRRGGGIDPTVKERLWLTLHWPSNQPTQLVSSCFGGELLQWDLTQSWRRKYTLFSASSEGQNHSRIVFNLCPLQTEDDKQLLLSTSMDRDVKCWDIATLECSWTLPSLGGFAYSLAFSSVDIGSLAIGVGDGMIRVWNTLSIKNNYDVKNFWQGVKSKVTALCWHPTKEGCLAFGTDDGKVGLYDTYSNKPPQISSTYHKKTVYTLAWGPPVPPMSLGGEGDRPSLALYSCGGEGIVLQHNPWKLSGEAFDINKLIRDTNSIKYKLPVHTEISWKADGKIMALGNEDGSIEIFQIPNLKLICTIQQHHKLVNTISWHHEHGSQPELSYLMASGSNNAVIYVHNLKTVIESSPESPVTITEPYRTLSGHTAKITSVAWSPHHDGRLVSASYDGTAQVWDALREEPLCNFRGHRGRLLCVAWSPLDPDCIYSGADDFCVHKWLTSMQDHSRPPQGKKSIELEKKRLSQPKAKPKKKKKPTLRTPVKLESIDGNEEESMKENSGPVENGVSDQEGEEQAREPELPCGLAPAVSREPVICTPVSSGFEKSKVTINNKVILLKKEPPKEKPETLIKKRKARSLLPLSTSLDHRSKEELHQDCLVLATAKHSRELNEDVSADVEERFHLGLFTDRATLYRMIDIEGKGHLENGHPELFHQLMLWKGDLKGVLQTAAERGELTDNLVAMAPAAGYHVWLWAVEAFAKQLCFQDQYVKAASHLLSIHKVYEAVELLKSNHFYREAIAIAKARLRPEDPVLKDLYLSWGTVLERDGHYAVAAKCYLGATCAYDAAKVLAKKGDAASLRTAAELAAIVGEDELSASLALRCAQELLLANNWVGAQEALQLHESLQGQRLVFCLLELLSRHLEEKQLSEGKSSSSYHTWNTGTEGPFVERVTAVWKSIFSLDTPEQYQEAFQKLQNIKYPSATNNTPAKQLLLHICHDLTLAVLSQQMASWDEAVQALLRAVVRSYDSGSFTIMQEVYSAFLPDGCDHLRDKLGDHQSPATPAFKSLEAFFLYGRLYEFWWSLSRPCPNSSVWVRAGHRTLSVEPSQQLDTASTEETDPETSQPEPNRPSELDLRLTEEGERMLSTFKELFSEKHASLQNSQRTVAEVQETLAEMIRQHQKSQLCKSTANGPDKNEPEVEAEQPLCSSQSQCKEEKNEPLSLPELTKRLTEANQRMAKFPESIKAWPFPDVLECCLVLLLIRSHFPGCLAQEMQQQAQELLQKYGNTKTYRRHCQTFCM
# B2: Xpress-His G5_(845–1287) [not stated] / G5_(1–1508)-FLAG [not stated] (parent complex)
# chain 1: ARSLLPLSTSLDHRSKEELHQDCLVLATAKHSRELNEDVSADVEERFHLGLFTDRATLYRMIDIEGKGHLENGHPELFHQLMLWKGDLKGVLQTAAERGELTDNLVAMAPAAGYHVWLWAVEAFAKQLCFQDQYVKAASHLLSIHKVYEAVELLKSNHFYREAIAIAKARLRPEDPVLKDLYLSWGTVLERDGHYAVAAKCYLGATCAYDAAKVLAKKGDAASLRTAAELAAIVGEDELSASLALRCAQELLLANNWVGAQEALQLHESLQGQRLVFCLLELLSRHLEEKQLSEGKSSSSYHTWNTGTEGPFVERVTAVWKSIFSLDTPEQYQEAFQKLQNIKYPSATNNTPAKQLLLHICHDLTLAVLSQQMASWDEAVQALLRAVVRSYDSGSFTIMQEVYSAFLPDGCDHLRDKLGDHQSPATPAFKSLEAFFLYGRLYE
# chain 2: B1 chain 2
# B3: Xpress-His G5_(845–1508) [not stated] / G5_(1–1508)-FLAG [not stated] (parent complex)
# chain 1: ARSLLPLSTSLDHRSKEELHQDCLVLATAKHSRELNEDVSADVEERFHLGLFTDRATLYRMIDIEGKGHLENGHPELFHQLMLWKGDLKGVLQTAAERGELTDNLVAMAPAAGYHVWLWAVEAFAKQLCFQDQYVKAASHLLSIHKVYEAVELLKSNHFYREAIAIAKARLRPEDPVLKDLYLSWGTVLERDGHYAVAAKCYLGATCAYDAAKVLAKKGDAASLRTAAELAAIVGEDELSASLALRCAQELLLANNWVGAQEALQLHESLQGQRLVFCLLELLSRHLEEKQLSEGKSSSSYHTWNTGTEGPFVERVTAVWKSIFSLDTPEQYQEAFQKLQNIKYPSATNNTPAKQLLLHICHDLTLAVLSQQMASWDEAVQALLRAVVRSYDSGSFTIMQEVYSAFLPDGCDHLRDKLGDHQSPATPAFKSLEAFFLYGRLYEFWWSLSRPCPNSSVWVRAGHRTLSVEPSQQLDTASTEETDPETSQPEPNRPSELDLRLTEEGERMLSTFKELFSEKHASLQNSQRTVAEVQETLAEMIRQHQKSQLCKSTANGPDKNEPEVEAEQPLCSSQSQCKEEKNEPLSLPELTKRLTEANQRMAKFPESIKAWPFPDVLECCLVLLLIRSHFPGCLAQEMQQQAQELLQKYGNTKTYRRHCQTFCM
# chain 2: B1 chain 2
# Variants of: B1
# Assay: pull-down; HEK293 cell lysates; western blot with anti-FLAG and anti-Xpress; n = 5; read off a plot
row,response,Variant
1,~0.29 relative intensity (PD/In),chain 1 A951E

# Variants of: B2
# Assay: pull-down; HEK293 cell lysates; western blot with anti-FLAG and anti-Xpress; read off a plot
row,response,Variant
1,~0.33 relative intensity (PD/In),chain 1 ARSLLPLSTSLDHRSKEELHQDCLVLATAKHSRELNEDVSADVEERFHLGLFTDRATLYRMIDIEGKGHLENGHPELFHQLMLWKGDLKGVLQTAAERGELTDNLVEMAPAAGYHVWLWAVEAFAKQLCFQDQYVKAASHLLSIHKVYEAVELLKSNHFYREAIAIAKARLRPEDPVLKDLYLSWGTVLERDGHYAVAAKCYLGATCAYDAAKVLAKKGDAASLRTAAELAAIVGEDELSASLALRCAQELLLANNWVGAQEALQLHESLQGQRLVFCLLELLSRHLEEKQLSEGKSSSSYHTWNTGTEGPFVERVTAVWKSIFSLDTPEQYQEAFQKLQNIKYPSATNNTPAKQLLLHICHDLTLAVLSQQMASWDEAVQALLRAVVRSYDSGSFTIMQEVYSAFLPDGCDHLRDKLGDHQSPATPAFKSLEAFFLYGRLYE [chain 1 A107E]

# Variants of: B3
# Assay: pull-down; HEK293 cell lysates; western blot with anti-FLAG and anti-Xpress; n = 3; read off a plot
row,response,Variant
1,~0.38 relative intensity (PD/In),chain 1 A107E
